Source: US20240261333A1 (published 2024)

Experiments:
[1] = biological target: RPL30 (human, UniProt P62888 1-115); experiment: co-IP/MS, anti-FLAG IP of N-FLAG B3GNT2 cell lysate
Protocol: (§1) Cells were plated in 10-cm cell culture dishes and grown to 60-80% confluency. For each condition, two biological replicates were harvested for co-IP. Cells were washed with PBS and 4 mL of lysis buffer (20 mM HEPES, 1% Triton X-100, 150 mM NaCl, 1 mM EDTA, and 10% glycerol) containing protease inhibitor cocktail was added. Cells were scraped and lysate was incubated at 4° C. under rotary agitation for 1 h. Lysate was centrifuged at 14,000×g for 10 min at 4° C. Supernatant was transferred to a new tube and an aliquot was taken as the input. […] For Western blots, 10 μg/mL Chicken Anti-FLAG (Aves labs ET-DY100) and IgY control (R&D Systems AB-101-C) antibodies were biotinylated (Thermo Fisher Scientific 90407) and added to the respective conditions. Lysates with antibodies were incubated at 4° C. under rotary agitation overnight. For each mL of lysate, 50 μL of Pierce Protein A/G Magnetic Beads (Mass spectrometry; Thermo Fisher Scientific 88803) or Pierce Streptavidin Magnetic Beads (Western blot; Thermo Fisher Scientific 88817) was washed twice with lysis buffer. Lysates with antibodies were added to the beads and incubated at 4° C. under rotary agitation for 4 h. Beads were washed with lysis buffer 3 times and resuspended in lysis buffer for storage.
(§2) Magnetic beads were resuspended in 100 mM Tris pH 7.8, reduced, alkylated and digested with trypsin at 37° ° C. overnight. This solution was subjected to solid phase extraction to concentrate the peptides and remove unwanted reagents followed by injection onto a Shimadzu HPLC with fraction collector. Eight fractions were collected and after concentration were injected on a Waters NanoAcquity HPLC equipped with a self-packed Aeris 3 μm C18 analytical column 0.075 mm by 20 cm, (Phenomenex). Peptides were eluted using standard reverse-phase gradients. The effluent from the column was analyzed using a Thermo Orbitrap Elite mass spectrometer (nanospray configuration) operated in a data dependent manner for 54 minutes. The resulting fragmentation spectra were correlated against the known database using Proteome Discover 1.4 (Thermo Fisher Scientific).

[2] = biological target: RPS5 (human, UniProt P46782 1-204); experiment: as above
Protocol: as §1, §2

[3] = biological target: RPS15 (human, UniProt P62841 2-145); experiment: as above
Protocol: as §1, §2

[4] = biological target: T1, FKBP10 (human, UniProt Q96AY3 27-582); experiment: as above
T1 construct: also called NP_068758.3 (+1)
T1 sequence (Q96AY3 27-582 limits assumed): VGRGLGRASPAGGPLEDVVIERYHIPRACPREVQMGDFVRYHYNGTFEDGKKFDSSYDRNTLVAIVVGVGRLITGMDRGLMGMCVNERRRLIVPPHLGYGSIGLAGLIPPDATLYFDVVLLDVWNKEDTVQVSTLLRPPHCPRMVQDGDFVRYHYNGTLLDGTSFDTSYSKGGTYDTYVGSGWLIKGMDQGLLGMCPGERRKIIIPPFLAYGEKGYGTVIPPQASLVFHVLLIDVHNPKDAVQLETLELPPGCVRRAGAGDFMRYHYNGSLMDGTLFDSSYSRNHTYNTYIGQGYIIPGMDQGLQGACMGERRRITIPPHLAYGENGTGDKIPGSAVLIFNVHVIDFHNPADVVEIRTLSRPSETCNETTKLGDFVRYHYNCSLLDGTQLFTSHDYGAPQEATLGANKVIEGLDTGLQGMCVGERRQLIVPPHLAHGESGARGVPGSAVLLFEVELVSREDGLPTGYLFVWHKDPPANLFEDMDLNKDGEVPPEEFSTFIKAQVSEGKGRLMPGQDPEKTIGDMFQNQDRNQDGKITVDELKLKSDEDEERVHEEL
Protocol: as §1, §2

[5] = biological target: T2, PRDX1 (human, UniProt Q06830 2-199); experiment: as above
T2 construct: also called NP_859048.1
T2 sequence (looked up): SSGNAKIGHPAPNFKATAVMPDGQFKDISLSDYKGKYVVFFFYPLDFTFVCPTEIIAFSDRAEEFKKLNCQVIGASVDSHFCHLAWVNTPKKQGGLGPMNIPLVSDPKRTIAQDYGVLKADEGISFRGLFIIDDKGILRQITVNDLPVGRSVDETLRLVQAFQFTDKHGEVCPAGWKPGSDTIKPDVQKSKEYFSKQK
Protocol: as §1, §2

[6] = biological target: RPS3A (human, UniProt P61247 2-264); experiment: as above
Protocol: as §1, §2

[7] = biological target: RPL24 (human, UniProt P83731 1-157); experiment: as above
Protocol: as §1, §2

[8] = biological target: T3, PRDX2 (human, UniProt P32119 2-198); experiment: as above
T3 construct: also called NP_005800.3
T3 sequence (looked up): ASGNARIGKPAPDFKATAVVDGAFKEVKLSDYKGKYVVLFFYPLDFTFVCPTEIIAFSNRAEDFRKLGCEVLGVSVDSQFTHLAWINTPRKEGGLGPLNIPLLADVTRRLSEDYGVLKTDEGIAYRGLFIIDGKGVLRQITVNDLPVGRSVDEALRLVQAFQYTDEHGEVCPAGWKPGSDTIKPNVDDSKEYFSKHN
Protocol: as §1, §2

[9] = biological target: RPS9 (human, UniProt P46781 2-194); experiment: as above
Protocol: as §1, §2

[10] = biological target: RPL14 (human, UniProt P50914 2-215); experiment: as above
Protocol: as §1, §2

[11] = biological target: T4, PCBP1 (human, UniProt Q15365 1-356); experiment: co-IP/MS, anti-FLAG IP of C-FLAG B3GNT2 cell lysate
T4 construct: also called NP_006187.2
T4 sequence (Q15365 whole entry): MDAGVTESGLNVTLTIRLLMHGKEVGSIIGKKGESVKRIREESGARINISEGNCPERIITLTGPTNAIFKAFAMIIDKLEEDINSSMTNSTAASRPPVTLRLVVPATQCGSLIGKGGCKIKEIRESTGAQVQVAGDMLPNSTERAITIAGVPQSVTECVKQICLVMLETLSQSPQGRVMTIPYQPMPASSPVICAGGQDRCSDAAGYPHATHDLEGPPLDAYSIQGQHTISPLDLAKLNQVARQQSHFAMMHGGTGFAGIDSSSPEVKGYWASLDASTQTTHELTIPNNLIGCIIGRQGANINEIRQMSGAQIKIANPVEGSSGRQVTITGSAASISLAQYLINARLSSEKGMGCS
Protocol: as §1, §2

[12] = biological target: T5, LRP1 (human, UniProt Q07954 20-4544, limits assumed); experiment: as above
T5 construct: also called NP_002323.2 (+1)
Protocol: as §1, §2

[13] = biological target: CAPZA1 (human, UniProt P52907 2-286); experiment: as above
Protocol: as §1, §2

[14] = biological target: T6, TGM3 (human, UniProt Q08188 2-693, limits assumed); experiment: as above
T6 construct: also called NP_003236.3
T6 sequence (looked up): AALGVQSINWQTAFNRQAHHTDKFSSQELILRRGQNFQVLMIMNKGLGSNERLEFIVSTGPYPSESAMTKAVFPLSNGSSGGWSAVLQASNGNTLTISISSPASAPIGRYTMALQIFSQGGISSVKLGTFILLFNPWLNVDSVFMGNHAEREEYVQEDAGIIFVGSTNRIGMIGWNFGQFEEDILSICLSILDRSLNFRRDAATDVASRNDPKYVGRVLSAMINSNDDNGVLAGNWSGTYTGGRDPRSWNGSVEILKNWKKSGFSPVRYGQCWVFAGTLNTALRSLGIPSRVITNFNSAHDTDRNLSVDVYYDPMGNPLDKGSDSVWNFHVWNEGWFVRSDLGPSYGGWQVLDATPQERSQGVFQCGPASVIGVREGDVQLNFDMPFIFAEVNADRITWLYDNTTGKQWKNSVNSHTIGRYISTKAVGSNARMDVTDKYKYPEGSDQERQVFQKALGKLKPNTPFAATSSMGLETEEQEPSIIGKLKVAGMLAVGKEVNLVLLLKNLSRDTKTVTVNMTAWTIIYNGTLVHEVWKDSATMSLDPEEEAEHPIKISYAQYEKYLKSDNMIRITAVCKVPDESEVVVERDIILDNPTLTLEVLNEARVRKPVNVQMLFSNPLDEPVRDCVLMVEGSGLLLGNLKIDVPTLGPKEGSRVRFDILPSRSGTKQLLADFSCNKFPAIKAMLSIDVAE
Protocol: as §1, §2

[15] = biological target: RPS7 (human, UniProt P62081 1-194); experiment: as above
Protocol: as §1, §2

[16] = biological target: RPS12 (human, UniProt P25398 2-132); experiment: as above
Protocol: as §1, §2

[17] = biological target: T7, PIP (human, UniProt P12273 29-146); experiment: as above
T7 construct: also called NP_002643.1
T7 sequence (looked up): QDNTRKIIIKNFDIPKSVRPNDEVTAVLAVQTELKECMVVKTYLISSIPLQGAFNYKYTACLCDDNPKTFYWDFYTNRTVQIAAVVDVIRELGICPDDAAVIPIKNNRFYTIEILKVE
Protocol: as §1, §2

[18] = biological target: T8, PSMC2 (human, UniProt P35998 2-433); experiment: anti-FLAG co-IP from lysate of C-FLAG B3GNT2 cells, mass spectrometry
T8 construct: also called NP_002794.1
T8 sequence (looked up): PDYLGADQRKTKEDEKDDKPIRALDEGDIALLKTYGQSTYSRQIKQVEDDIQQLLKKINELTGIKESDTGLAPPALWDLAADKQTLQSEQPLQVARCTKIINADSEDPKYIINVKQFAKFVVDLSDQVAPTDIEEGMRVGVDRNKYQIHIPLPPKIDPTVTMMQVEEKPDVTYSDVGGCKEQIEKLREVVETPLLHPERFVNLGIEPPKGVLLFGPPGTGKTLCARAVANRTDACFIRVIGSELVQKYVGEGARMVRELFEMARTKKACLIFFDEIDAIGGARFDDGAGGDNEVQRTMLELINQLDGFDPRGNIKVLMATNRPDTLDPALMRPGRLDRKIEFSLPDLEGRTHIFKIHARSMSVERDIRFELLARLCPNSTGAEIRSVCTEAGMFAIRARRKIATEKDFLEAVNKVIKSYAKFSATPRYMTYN
Protocol: as §1, §2

[19] = biological target: T9, PSMA5 (human, UniProt P28066 1-241); experiment: as above
T9 construct: also called NP_002781.2
T9 sequence (P28066 whole entry): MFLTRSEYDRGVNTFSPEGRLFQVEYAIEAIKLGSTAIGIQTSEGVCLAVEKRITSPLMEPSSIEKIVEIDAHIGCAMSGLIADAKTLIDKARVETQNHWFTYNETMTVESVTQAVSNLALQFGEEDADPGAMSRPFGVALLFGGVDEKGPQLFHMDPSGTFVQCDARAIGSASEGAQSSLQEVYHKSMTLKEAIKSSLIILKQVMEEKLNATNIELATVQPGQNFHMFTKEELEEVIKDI
Protocol: as §1, §2

[20] = biological target: T10, ERP29 (human, UniProt P30040 33-261); experiment: as above
T10 construct: also called NP_006808.1
Protocol: as §1, §2

[21] = biological target: T11, PSMB4 (human, UniProt P28070 46-264); experiment: as above
T11 construct: also called NP_002787.2
T11 sequence (P28070 46-264 limits assumed): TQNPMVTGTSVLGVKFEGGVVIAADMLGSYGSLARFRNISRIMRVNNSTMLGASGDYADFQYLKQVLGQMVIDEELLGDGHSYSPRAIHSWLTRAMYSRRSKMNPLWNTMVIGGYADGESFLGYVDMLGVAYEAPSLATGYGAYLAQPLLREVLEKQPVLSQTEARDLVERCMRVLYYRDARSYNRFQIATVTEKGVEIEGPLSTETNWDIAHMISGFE
Protocol: as §1, §2

B1: N-terminal FLAG tagged B3GNT2 (enzyme, human, UniProt Q9NY97 1-397, looked up)
chain: MSVGRRRIKLLGILMMANVFIYFIMEVSKSSSQEKNGKGEVIIPKEKFWKISTPPEAYWNREQEKLNRQYNPILSMLTNQTGEAGRLSNISHLNYCEPDLRVTSVVTGFNNLPDRFKDFLLYLRCRNYSLLIDQPDKCAKKPFLLLAIKSLTPHFARRQAIRESWGQESNAGNQTVVRVFLLGQTPPEDNHPDLSDMLKFESEKHQDILMWNYRDTFFNLSLKEVLFLRWVSTSCPDTEFVFKGDDDVFVNTHHILNYLNSLSKTKAKDLFIGDVIHNAGPHRDKKLKYYIPEVVYSGLYPPYAGGGGFLYSGHLALRLYHITDQVHLYPIDDVYTGMCLQKLGLVPEKHKGFRTFDIEEKNKNNICSYVDLMLVHSRKPQEMIDIWSQLQSAHLKC
notes: FLAG-tagged ORF overexpressed in cells; bait of the co-IP, pulled down with mouse anti-FLAG; also called N-FLAG B3GNT2; N-term FLAG; not shown: N-terminal FLAG tag
co-IP mass spectrometry count [1]: 8
co-IP mass spectrometry count [2]: 4
co-IP mass spectrometry count [3]: 7
co-IP mass spectrometry count [4]: 0
co-IP mass spectrometry count [5]: 8
co-IP mass spectrometry count [6]: 12
co-IP mass spectrometry count [7]: 4
co-IP mass spectrometry count [8]: 9
co-IP mass spectrometry count [9]: 2
co-IP mass spectrometry count [10]: 11

B2: C-terminal FLAG tagged B3GNT2 (enzyme, human, UniProt Q9NY97 1-397, looked up)
chain: MSVGRRRIKLLGILMMANVFIYFIMEVSKSSSQEKNGKGEVIIPKEKFWKISTPPEAYWNREQEKLNRQYNPILSMLTNQTGEAGRLSNISHLNYCEPDLRVTSVVTGFNNLPDRFKDFLLYLRCRNYSLLIDQPDKCAKKPFLLLAIKSLTPHFARRQAIRESWGQESNAGNQTVVRVFLLGQTPPEDNHPDLSDMLKFESEKHQDILMWNYRDTFFNLSLKEVLFLRWVSTSCPDTEFVFKGDDDVFVNTHHILNYLNSLSKTKAKDLFIGDVIHNAGPHRDKKLKYYIPEVVYSGLYPPYAGGGGFLYSGHLALRLYHITDQVHLYPIDDVYTGMCLQKLGLVPEKHKGFRTFDIEEKNKNNICSYVDLMLVHSRKPQEMIDIWSQLQSAHLKC
notes: FLAG-tagged ORF overexpressed in cells; bait of the co-IP, pulled down with mouse anti-FLAG; also called C-FLAG B3GNT2; C-term flag; not shown: C-terminal FLAG tag
co-IP mass spectrometry count [11]: 4
co-IP mass spectrometry count [12]: 0
co-IP mass spectrometry count [13]: 0
co-IP mass spectrometry count [14]: 5
co-IP mass spectrometry count [15]: 8
co-IP mass spectrometry count [16]: 8
co-IP mass spectrometry count [17]: 3

B3: C-terminal FLAG tagged B3GNT2 (enzyme, human, UniProt Q9NY97 1-397, looked up)
chain: MSVGRRRIKLLGILMMANVFIYFIMEVSKSSSQEKNGKGEVIIPKEKFWKISTPPEAYWNREQEKLNRQYNPILSMLTNQTGEAGRLSNISHLNYCEPDLRVTSVVTGFNNLPDRFKDFLLYLRCRNYSLLIDQPDKCAKKPFLLLAIKSLTPHFARRQAIRESWGQESNAGNQTVVRVFLLGQTPPEDNHPDLSDMLKFESEKHQDILMWNYRDTFFNLSLKEVLFLRWVSTSCPDTEFVFKGDDDVFVNTHHILNYLNSLSKTKAKDLFIGDVIHNAGPHRDKKLKYYIPEVVYSGLYPPYAGGGGFLYSGHLALRLYHITDQVHLYPIDDVYTGMCLQKLGLVPEKHKGFRTFDIEEKNKNNICSYVDLMLVHSRKPQEMIDIWSQLQSAHLKC
notes: Bait of the co-IP; pulled down from cell lysate with mouse anti-FLAG antibody; also called C-FLAG B3GNT2; C-term flag; not shown: C-terminal FLAG tag
co-IP mass spectrometry count [18]: 0
co-IP mass spectrometry count [19]: 0
co-IP mass spectrometry count [20]: 0
co-IP mass spectrometry count [21]: 0
